pKd: −log10 of the molar value.
Tests used:
HLA-B*15:03 = experiment: IEDB peptide-MHC binding, purified MHC/competitive/radioactivity; filed as Kd, often an IC50 or EC50 that approximates it; ≥ and ≤ were set here for values at or beyond the usual limits of such assays
HLA-B*18:01 = experiment: as above
HLA-B*40:01 = experiment: as above
HLA-B*40:02 = experiment: as above
HLA-B*44:02 = experiment: as above
HLA-B*44:03 = experiment: as above
HLA-B*45:01 = experiment: as above
HLA-A*02:01 [1] = experiment: as above
HLA-A*02:03 = experiment: as above
HLA-A*02:01 [2] = experiment: IEDB peptide-MHC binding, purified MHC/competitive/fluorescence; filed as Kd, often an IC50 or EC50 that approximates it; ≥ and ≤ were set here for values at or beyond the usual limits of such assays; settings: source organism: Yersinia pestis Nepal516
HLA-B*15:01 [3] = experiment: as above; settings: source organism: Yersinia pestis Nepal516
HLA-B*39:01 = experiment: as above; settings: source organism: Yersinia pestis Nepal516
HLA-B*15:01 [4] = experiment: IEDB peptide-MHC binding, purified MHC/competitive/radioactivity; filed as Kd, often an IC50 or EC50 that approximates it; ≥ and ≤ were set here for values at or beyond the usual limits of such assays
HLA-A*26:01 = experiment: IEDB peptide-MHC binding, purified MHC/competitive/fluorescence; filed as Kd, often an IC50 or EC50 that approximates it; ≥ and ≤ were set here for values at or beyond the usual limits of such assays; settings: source organism: Escherichia coli str. K-12 substr. MG1655
HLA-B*51:01 = experiment: IEDB peptide-MHC binding, purified MHC/competitive/radioactivity; filed as Kd, often an IC50 or EC50 that approximates it; ≥ and ≤ were set here for values at or beyond the usual limits of such assays; settings: source organism: Dengue virus 2 Jamaica/1409/1983
HLA-A*32:01 = experiment: as above
HLA-B*08:01 = experiment: as above
HLA-B*07:02 = experiment: as above; settings: source organism: Dengue virus 2 Jamaica/1409/1983
HLA-B*53:01 = experiment: as above; settings: source organism: Dengue virus 2 Jamaica/1409/1983
HLA-A*30:01 = experiment: as above; settings: source organism: Vaccinia virus WR
[5] = source organism: Vaccinia virus WR
[6] = source organism: Mammarenavirus lassaense
[7] = source organism: SARS coronavirus Tor2
[8] = source organism: Mammarenavirus machupoense
[9] = source organism: Mammarenavirus brazilense
[10] = source organism: Vaccinia virus Copenhagen
[11] = source organism: Mammarenavirus choriomeningitidis

AAFEFINSL
pKd (HLA-B*15:03; [5]): 8.34

AEFKSRFFVW
pKd (HLA-B*18:01; [6]): 6.57
pKd (HLA-B*40:01; [6]): 5.63
pKd (HLA-B*40:02; [6]): 7.53
pKd (HLA-B*44:02; [6]): 7.87
pKd (HLA-B*44:03; [6]): 7.81
pKd (HLA-B*45:01; [6]): 7.29

AEMDGIQYG
pKd (HLA-B*18:01; [7]): ≤ 4.11
pKd (HLA-B*40:01; [7]): 5.69
pKd (HLA-B*40:02; [7]): 5.88
pKd (HLA-B*44:02; [7]): 7.94
pKd (HLA-B*44:03; [7]): 7.86
pKd (HLA-B*45:01; [7]): 7.32

ALKRAQSEL
pKd (HLA-A*02:01 [1]; source organism: Homo sapiens): ≤ 4.38
pKd (HLA-A*02:03; source organism: Homo sapiens): 7.63

AQRELFFTL
pKd (HLA-A*02:01 [2]): 5.89
pKd (HLA-B*15:01 [3]): 6.95
pKd (HLA-B*39:01): 6.48

CSAPPGQHM
pKd (HLA-B*15:01 [4]; [5]): 7.28
pKd (HLA-B*15:03; [5]): 7.62

DVAKIEAPL
pKd (HLA-A*26:01): 6.49

EELITDTEFL
pKd (HLA-B*18:01; [6]): 4.96
pKd (HLA-B*40:01; [6]): 4.90
pKd (HLA-B*40:02; [6]): ≤ 4.62
pKd (HLA-B*44:02; [6]): 5.32
pKd (HLA-B*44:03; [6]): 5.04
pKd (HLA-B*45:01; [6]): 4.91

EEPVPLLPLS
pKd (HLA-B*18:01; [8]): ≤ 4.28
pKd (HLA-B*40:01; [8]): ≤ 4.49
pKd (HLA-B*40:02; [8]): 5.15
pKd (HLA-B*44:02; [8]): 4.80
pKd (HLA-B*44:03; [8]): 5.20
pKd (HLA-B*45:01; [8]): 5.71

FLTIPPTAGI
pKd (HLA-A*02:03; source organism: Dengue virus 2 Jamaica/1409/1983): 8.01
pKd (HLA-B*51:01): 6.46

FQVVNPHLL
pKd (HLA-B*15:03; [5]): 7.39

FSGSFASIF
pKd (HLA-B*15:03; [5]): 9.50

GEDIQLLKA
pKd (HLA-B*18:01; [7]): 5.97
pKd (HLA-B*40:01; [7]): 5.12
pKd (HLA-B*40:02; [7]): 5.56
pKd (HLA-B*44:02; [7]): 4.87
pKd (HLA-B*44:03; [7]): 5.58
pKd (HLA-B*45:01; [7]): 5.54

GEHSLPRCW
pKd (HLA-B*18:01; [9]): ≤ 4.11
pKd (HLA-B*40:01; [9]): ≤ 4.37
pKd (HLA-B*40:02; [9]): 5.67
pKd (HLA-B*44:02; [9]): 7.62
pKd (HLA-B*44:03; [9]): 7.10
pKd (HLA-B*45:01; [9]): 5.06

GLQSQQGHL
pKd (HLA-A*02:01 [1]; source organism: Hepatitis B virus subtype ayw): ≤ 5.30

GLTYSQLMT
pKd (HLA-A*02:01 [1]; source organism: Lassa virus Josiah): 4.90

HMAYSFQTF
pKd (HLA-A*32:01; [10]): 7.79
pKd (HLA-B*08:01; [10]): 6.13
pKd (HLA-B*15:01 [4]; [10]): 9.61
pKd (HLA-B*15:03; [10]): 9.55

IDPTLTTWI
pKd (HLA-B*18:01; [9]): ≤ 4.38
pKd (HLA-B*40:01; [9]): ≤ 4.27
pKd (HLA-B*40:02; [9]): ≤ 5.00
pKd (HLA-B*44:02; [9]): 5.45
pKd (HLA-B*44:03; [9]): 5.86
pKd (HLA-B*45:01; [9]): 5.14

IETALRTLI
pKd (HLA-B*18:01; [11]): 5.46
pKd (HLA-B*40:01; [11]): 5.73
pKd (HLA-B*40:02; [11]): 6.81
pKd (HLA-B*44:02; [11]): 5.56
pKd (HLA-B*44:03; [11]): 5.66
pKd (HLA-B*45:01; [11]): ≤ 4.27

IPTAMAFHL
pKd (HLA-B*07:02): 7.08
pKd (HLA-B*53:01): 7.31

KEGFFTYLCG
pKd (HLA-B*18:01; [7]): ≤ 4.15
pKd (HLA-B*40:01; [7]): 5.79
pKd (HLA-B*40:02; [7]): 5.43
pKd (HLA-B*44:02; [7]): 5.58
pKd (HLA-B*44:03; [7]): 6.43
pKd (HLA-B*45:01; [7]): 5.54

KENDSKEGFF
pKd (HLA-B*18:01; [7]): 5.13
pKd (HLA-B*40:01; [7]): 5.57
pKd (HLA-B*40:02; [7]): 6.44
pKd (HLA-B*44:02; [7]): 7.40
pKd (HLA-B*44:03; [7]): 7.52
pKd (HLA-B*45:01; [7]): 7.61

LEFIHSQGF
pKd (HLA-B*15:03; [5]): 6.97

LESAQPGLL
pKd (HLA-B*18:01; [9]): ≤ 5.00
pKd (HLA-B*40:01; [9]): 6.83
pKd (HLA-B*40:02; [9]): 6.37
pKd (HLA-B*44:02; [9]): 5.53
pKd (HLA-B*44:03; [9]): 4.77
pKd (HLA-B*45:01; [9]): 4.87

LEWLAEVVKL
pKd (HLA-B*18:01; [7]): 5.91
pKd (HLA-B*40:01; [7]): 6.98
pKd (HLA-B*40:02; [7]): ≤ 4.70
pKd (HLA-B*44:02; [7]): 5.03
pKd (HLA-B*44:03; [7]): 5.14
pKd (HLA-B*45:01; [7]): 5.04

LHAVYSIVF
pKd (HLA-B*15:03; [5]): 8.06

LIGARRTSF
pKd (HLA-A*30:01): 6.25
pKd (HLA-A*32:01; [5]): 5.24
pKd (HLA-B*08:01; [5]): 8.82
pKd (HLA-B*15:01 [4]; [5]): 7.40
pKd (HLA-B*15:03; [5]): 6.75

Reference: the Immune Epitope Database (IEDB)
